Non-standard residues stand in square brackets, D forms with d. No end group written: not given here. *: point of attachment. Acm = CC(=O)NC*
Target: IGF-I receptor (human (endogenous in HT-29)) (UniProt P08069)
UniProt P08069, sequence (P08069 31-1367): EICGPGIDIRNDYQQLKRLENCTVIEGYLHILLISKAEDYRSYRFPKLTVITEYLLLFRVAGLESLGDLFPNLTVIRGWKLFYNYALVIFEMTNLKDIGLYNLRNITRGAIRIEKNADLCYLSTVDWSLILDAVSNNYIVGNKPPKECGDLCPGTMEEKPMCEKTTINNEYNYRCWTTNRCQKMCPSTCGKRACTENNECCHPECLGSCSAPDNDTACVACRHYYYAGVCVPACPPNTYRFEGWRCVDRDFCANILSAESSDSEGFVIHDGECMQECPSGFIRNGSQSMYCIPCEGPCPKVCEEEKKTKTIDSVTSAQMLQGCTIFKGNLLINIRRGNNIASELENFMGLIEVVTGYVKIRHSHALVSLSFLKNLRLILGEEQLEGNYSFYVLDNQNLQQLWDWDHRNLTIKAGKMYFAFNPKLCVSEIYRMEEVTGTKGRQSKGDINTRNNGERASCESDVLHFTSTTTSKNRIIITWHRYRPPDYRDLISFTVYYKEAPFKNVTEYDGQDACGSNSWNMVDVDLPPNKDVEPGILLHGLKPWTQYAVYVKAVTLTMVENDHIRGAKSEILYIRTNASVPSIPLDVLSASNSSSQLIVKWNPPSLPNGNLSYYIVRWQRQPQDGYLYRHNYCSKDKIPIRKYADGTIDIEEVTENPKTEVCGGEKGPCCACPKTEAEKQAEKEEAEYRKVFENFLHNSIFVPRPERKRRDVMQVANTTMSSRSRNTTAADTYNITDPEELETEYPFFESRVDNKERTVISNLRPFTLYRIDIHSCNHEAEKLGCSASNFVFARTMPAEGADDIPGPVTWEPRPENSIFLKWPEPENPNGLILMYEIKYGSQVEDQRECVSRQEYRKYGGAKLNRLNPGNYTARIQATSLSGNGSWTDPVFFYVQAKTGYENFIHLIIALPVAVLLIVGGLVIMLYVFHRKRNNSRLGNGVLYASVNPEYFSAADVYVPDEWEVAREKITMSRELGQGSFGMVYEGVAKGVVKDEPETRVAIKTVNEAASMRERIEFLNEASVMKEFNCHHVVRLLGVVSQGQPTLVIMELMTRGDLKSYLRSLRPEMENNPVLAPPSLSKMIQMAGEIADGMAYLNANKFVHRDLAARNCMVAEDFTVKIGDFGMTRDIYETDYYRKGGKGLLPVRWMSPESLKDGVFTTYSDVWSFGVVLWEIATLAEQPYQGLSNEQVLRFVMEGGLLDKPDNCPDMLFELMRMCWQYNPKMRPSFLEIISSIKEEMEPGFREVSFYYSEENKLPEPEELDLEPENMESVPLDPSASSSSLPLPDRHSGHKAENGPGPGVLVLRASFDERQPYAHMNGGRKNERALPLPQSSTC

proliferation of HT-29 cells (modified Alamar Blue assay), 48 h with 0.001-1 uM M1557 in medium with 10% FBS: percent inhibition: 14 to 15%
B1: IGF-I D domain analogue peptide (M1557) (peptide)
peptide: [dY]C(Acm)[dA][dP][dL][dK][dP][dA][dK][dS][dA]-NH2
modifications: N-terminus assumed
SMILES: CC(=O)NCSC[C@H](NC(=O)[C@H](N)Cc1ccc(O)cc1)C(=O)N[C@H](C)C(=O)N1CCC[C@@H]1C(=O)N[C@H](CC(C)C)C(=O)N[C@H](CCCCN)C(=O)N1CCC[C@@H]1C(=O)N[C@H](C)C(=O)N[C@H](CCCCN)C(=O)N[C@H](CO)C(=O)N[C@H](C)C(N)=O
